Measurements from US8530213B2, “Compositions and methods for using NADH oxidases” (Georgia Tech Research Corporation, priority 2009, dated 2013).

Columns and labels:
[1] = NOX5 mutants assayed at the cell lysate level, NADH activity; format: biochemical
Description: (§1) Standard assays were performed at 25° C. in 100 mM TEA buffer (pH 7.5) with 5 mM DTT in cuvettes with either a 1 cm or 1 mm path length, depending on the concentration of substrate. Initial activity was measured by following the absorbance change using a Beckman Coulter DU 800 UV/Vis spectrophotometer at 340 nm. Activity of the enzyme was calculated using an extinction coefficient of NAD(P)H, ε, as 6.22 mM^−1 cm^−1. Unless otherwise noted, a substrate concentration of 0.2 mM NADPH was used for assays. 1 unit (U) of activity is defined as […].
(§2) Single mutations were done on residues G178 and L179 into K, R and K, R, H respectively, and double mutations were also investigated with different combinations of the single mutations. The mutation of G178H was excluded due to the fact that the enzyme would then have two histidines next to each other, creating steric hindrance in the binding pocket. The resulting mutants were expressed on small scale and assayed at the cell lysate level.

[2] = NOX5 mutants assayed at the cell lysate level, NADPH activity; format: biochemical
Description: as §1, §2

B1: L179H: NADH oxidase derived from Lactobacillus plantarum, L179H mutant (protein, listed as Lactobacillus plantarum)
chain: MKVIVIGCTHAGTAAVNQILASNPDTEVTIYERNDNVSFLSCGIALYLGGQVADPQGLFYSSPEQLAKLGATVHMQHDVTDVNTDKHEITVTDLKTGESKTDHYDKLVVTTGSWPVIPPIDGIDSPNVYLCKNWTHAQNLWEAAKPAKRVIVIGGGYIGTELVEAYQKQGKEVTLIDGHPRILNKYLDKEFTDRVEQDFVDHGIKMALNQMVQGFSDDGKEVTVKTDKGSYTADMAILCVGFRPNTGLLKGKVDMNANGSIKTNDYMQTSDPDIYGAGDSVAVHYNPTKKDAYIPLATNAVRQGTLVGLNIFKPTRKYMGTQSTSGLMLFGQTIVSSGMTLEHAQAENVPAAAVTFEDNYRPEFMPTTKPVLMQLVYNPETREILGAQFMSEHDVSQSANVISVMIQNHNTIDDLGFVDMFFQPIYDRPFNYLNLLGQAAIAHAAEAVTE
[1]
  NADH activity: 1.37 U/mg
[2]
  NADPH activity: 0.64 U/mg

B2: L179K: NADH oxidase derived from Lactobacillus plantarum, L179K mutant (protein, listed as Lactobacillus plantarum)
chain: MKVIVIGCTHAGTAAVNQILASNPDTEVTIYERNDNVSFLSCGIALYLGGQVADPQGLFYSSPEQLAKLGATVHMQHDVTDVNTDKHEITVTDLKTGESKTDHYDKLVVTTGSWPVIPPIDGIDSPNVYLCKNWTHAQNLWEAAKPAKRVIVIGGGYIGTELVEAYQKQGKEVTLIDGKPRILNKYLDKEFTDRVEQDFVDHGIKMALNQMVQGFSDDGKEVTVKTDKGSYTADMAILCVGFRPNTGLLKGKVDMNANGSIKTNDYMQTSDPDIYGAGDSVAVHYNPTKKDAYIPLATNAVRQGTLVGLNIFKPTRKYMGTQSTSGLMLFGQTIVSSGMTLEHAQAENVPAAAVTFEDNYRPEFMPTTKPVLMQLVYNPETREILGAQFMSEHDVSQSANVISVMIQNHNTIDDLGFVDMFFQPIYDRPFNYLNLLGQAAIAHAAEAVTE
[1]
  NADH activity: 5.14 U/mg
[2]
  NADPH activity: 1.03 U/mg

B3: G178K/L179H: NADH oxidase derived from Lactobacillus plantarum, G178K/L179H mutant (protein, listed as Lactobacillus plantarum)
chain: MKVIVIGCTHAGTAAVNQILASNPDTEVTIYERNDNVSFLSCGIALYLGGQVADPQGLFYSSPEQLAKLGATVHMQHDVTDVNTDKHEITVTDLKTGESKTDHYDKLVVTTGSWPVIPPIDGIDSPNVYLCKNWTHAQNLWEAAKPAKRVIVIGGGYIGTELVEAYQKQGKEVTLIDKHPRILNKYLDKEFTDRVEQDFVDHGIKMALNQMVQGFSDDGKEVTVKTDKGSYTADMAILCVGFRPNTGLLKGKVDMNANGSIKTNDYMQTSDPDIYGAGDSVAVHYNPTKKDAYIPLATNAVRQGTLVGLNIFKPTRKYMGTQSTSGLMLFGQTIVSSGMTLEHAQAENVPAAAVTFEDNYRPEFMPTTKPVLMQLVYNPETREILGAQFMSEHDVSQSANVISVMIQNHNTIDDLGFVDMFFQPIYDRPFNYLNLLGQAAIAHAAEAVTE
[1]
  NADH activity: 1.24 U/mg
[2]
  NADPH activity: 3.85 U/mg

B4: G178K/L179R: NADH oxidase derived from Lactobacillus plantarum, G178K/L179R mutant (protein, listed as Lactobacillus plantarum)
chain: MKVIVIGCTHAGTAAVNQILASNPDTEVTIYERNDNVSFLSCGIALYLGGQVADPQGLFYSSPEQLAKLGATVHMQHDVTDVNTDKHEITVTDLKTGESKTDHYDKLVVTTGSWPVIPPIDGIDSPNVYLCKNWTHAQNLWEAAKPAKRVIVIGGGYIGTELVEAYQKQGKEVTLIDKRPRILNKYLDKEFTDRVEQDFVDHGIKMALNQMVQGFSDDGKEVTVKTDKGSYTADMAILCVGFRPNTGLLKGKVDMNANGSIKTNDYMQTSDPDIYGAGDSVAVHYNPTKKDAYIPLATNAVRQGTLVGLNIFKPTRKYMGTQSTSGLMLFGQTIVSSGMTLEHAQAENVPAAAVTFEDNYRPEFMPTTKPVLMQLVYNPETREILGAQFMSEHDVSQSANVISVMIQNHNTIDDLGFVDMFFQPIYDRPFNYLNLLGQAAIAHAAEAVTE
[1]
  NADH activity: 2.00 U/mg
[2]
  NADPH activity: 5.68 U/mg

B5: G178R/L179K: NADH oxidase derived from Lactobacillus plantarum, G178R/L179K mutant (protein, listed as Lactobacillus plantarum)
chain: MKVIVIGCTHAGTAAVNQILASNPDTEVTIYERNDNVSFLSCGIALYLGGQVADPQGLFYSSPEQLAKLGATVHMQHDVTDVNTDKHEITVTDLKTGESKTDHYDKLVVTTGSWPVIPPIDGIDSPNVYLCKNWTHAQNLWEAAKPAKRVIVIGGGYIGTELVEAYQKQGKEVTLIDRKPRILNKYLDKEFTDRVEQDFVDHGIKMALNQMVQGFSDDGKEVTVKTDKGSYTADMAILCVGFRPNTGLLKGKVDMNANGSIKTNDYMQTSDPDIYGAGDSVAVHYNPTKKDAYIPLATNAVRQGTLVGLNIFKPTRKYMGTQSTSGLMLFGQTIVSSGMTLEHAQAENVPAAAVTFEDNYRPEFMPTTKPVLMQLVYNPETREILGAQFMSEHDVSQSANVISVMIQNHNTIDDLGFVDMFFQPIYDRPFNYLNLLGQAAIAHAAEAVTE
[1]
  NADH activity: 0.94 U/mg
[2]
  NADPH activity: 3.56 U/mg

B6: G178R/L179H: NADH oxidase derived from Lactobacillus plantarum, G178R/L179H mutant (protein, listed as Lactobacillus plantarum)
chain: MKVIVIGCTHAGTAAVNQILASNPDTEVTIYERNDNVSFLSCGIALYLGGQVADPQGLFYSSPEQLAKLGATVHMQHDVTDVNTDKHEITVTDLKTGESKTDHYDKLVVTTGSWPVIPPIDGIDSPNVYLCKNWTHAQNLWEAAKPAKRVIVIGGGYIGTELVEAYQKQGKEVTLIDRHPRILNKYLDKEFTDRVEQDFVDHGIKMALNQMVQGFSDDGKEVTVKTDKGSYTADMAILCVGFRPNTGLLKGKVDMNANGSIKTNDYMQTSDPDIYGAGDSVAVHYNPTKKDAYIPLATNAVRQGTLVGLNIFKPTRKYMGTQSTSGLMLFGQTIVSSGMTLEHAQAENVPAAAVTFEDNYRPEFMPTTKPVLMQLVYNPETREILGAQFMSEHDVSQSANVISVMIQNHNTIDDLGFVDMFFQPIYDRPFNYLNLLGQAAIAHAAEAVTE
[1]
  NADH activity: 0.64 U/mg
[2]
  NADPH activity: 0.52 U/mg

B7: G178K/L179K: NADH oxidase derived from Lactobacillus plantarum, G178K/L179K mutant (protein, listed as Lactobacillus plantarum)
chain: MKVIVIGCTHAGTAAVNQILASNPDTEVTIYERNDNVSFLSCGIALYLGGQVADPQGLFYSSPEQLAKLGATVHMQHDVTDVNTDKHEITVTDLKTGESKTDHYDKLVVTTGSWPVIPPIDGIDSPNVYLCKNWTHAQNLWEAAKPAKRVIVIGGGYIGTELVEAYQKQGKEVTLIDKKPRILNKYLDKEFTDRVEQDFVDHGIKMALNQMVQGFSDDGKEVTVKTDKGSYTADMAILCVGFRPNTGLLKGKVDMNANGSIKTNDYMQTSDPDIYGAGDSVAVHYNPTKKDAYIPLATNAVRQGTLVGLNIFKPTRKYMGTQSTSGLMLFGQTIVSSGMTLEHAQAENVPAAAVTFEDNYRPEFMPTTKPVLMQLVYNPETREILGAQFMSEHDVSQSANVISVMIQNHNTIDDLGFVDMFFQPIYDRPFNYLNLLGQAAIAHAAEAVTE
[1]
  NADH activity: 0.84 U/mg
[2]
  NADPH activity: 3.11 U/mg

B8: G178K: NADH oxidase derived from Lactobacillus plantarum, G178K mutant (protein, listed as Lactobacillus plantarum)
chain: MKVIVIGCTHAGTAAVNQILASNPDTEVTIYERNDNVSFLSCGIALYLGGQVADPQGLFYSSPEQLAKLGATVHMQHDVTDVNTDKHEITVTDLKTGESKTDHYDKLVVTTGSWPVIPPIDGIDSPNVYLCKNWTHAQNLWEAAKPAKRVIVIGGGYIGTELVEAYQKQGKEVTLIDKLPRILNKYLDKEFTDRVEQDFVDHGIKMALNQMVQGFSDDGKEVTVKTDKGSYTADMAILCVGFRPNTGLLKGKVDMNANGSIKTNDYMQTSDPDIYGAGDSVAVHYNPTKKDAYIPLATNAVRQGTLVGLNIFKPTRKYMGTQSTSGLMLFGQTIVSSGMTLEHAQAENVPAAAVTFEDNYRPEFMPTTKPVLMQLVYNPETREILGAQFMSEHDVSQSANVISVMIQNHNTIDDLGFVDMFFQPIYDRPFNYLNLLGQAAIAHAAEAVTE
[1]
  NADH activity: 3.92 U/mg
[2]
  NADPH activity: 0.46 U/mg

B9: G178R: NADH oxidase derived from Lactobacillus plantarum, G178R mutant (protein, listed as Lactobacillus plantarum)
chain: MKVIVIGCTHAGTAAVNQILASNPDTEVTIYERNDNVSFLSCGIALYLGGQVADPQGLFYSSPEQLAKLGATVHMQHDVTDVNTDKHEITVTDLKTGESKTDHYDKLVVTTGSWPVIPPIDGIDSPNVYLCKNWTHAQNLWEAAKPAKRVIVIGGGYIGTELVEAYQKQGKEVTLIDKLPRILNKYLDKEFTDRVEQDFVDHGIKMALNQMVQGFSDDGKEVTVKTDKGSYTADMAILCVGFRPNTGLLKGKVDMNANGSIKTNDYMQTSDPDIYGAGDSVAVHYNPTKKDAYIPLATNAVRQGTLVGLNIFKPTRKYMGTQSTSGLMLFGQTIVSSGMTLEHAQAENVPAAAVTFEDNYRPEFMPTTKPVLMQLVYNPETREILGAQFMSEHDVSQSANVISVMIQNHNTIDDLGFVDMFFQPIYDRPFNYLNLLGQAAIAHAAEAVTE
[1]
  NADH activity: 1.51 U/mg
[2]
  NADPH activity: 0.23 U/mg
